Residue numbers refer to the chain shown, from its start. In names and notes the source's numbering stands.
Key:
[1] = target: T1, pL807
T1 chain: KEAPPSPPQSP

[2] = target: T2, L807
T2 chain: KEAPPSPPQSP

B1: Bacterially expressed Purified GSK-3β Wild-Type (WT) (protein)
chain: MSGRPRTTSFAESCKPVQQPSAFGSMKVSRDKDGSKVTTVVATPGQGPDRPQEVSYTDTKVIGNGSFGVVYQAKLCDSGELVAIKKVLQDKRFKNRELQIMRKLDHCNIVRLRYFFYSSGEKKDEVYLNLVLDYVPETVYRVARHYSRAKQTLPVIYVKLYMYQLFRSLAYIHSFGICHRDIKPQNLLLDPDTAVLKLCDFGSAKQLVRGEPNVSYICSRYYRAPELIFGATDYTSSIDVWSAGCVLAELLLGQPIFPGDSGVDQLVEIIKVLGTPTREQIREMNPNYTEFKFPQIKAHPWTKDSSGTGHFTSGVRVFRPRTPPEAIALCSRLLEYTPTARLTPLEACAHSFFDELRDPNVKLPNGRDTPALFNFTTQELSSNPPLATILIPPHARIQAAASTPTNATAASDANTGDRGQTNNAASASASNST
With B1 the “peptide phosphorylation by GSK-3β (in vitro kinase assay, 32P-γ-ATP)” value [1] was “pL807 is not a substrate of GSK-3”, the “peptide phosphorylation by GSK-3β (in vitro kinase assay, 32P-γ-ATP)” value [2] was “shows that L807 is a substrate of GSK-3” and the “peptide phosphorylation by WT GSK-3β (in vitro kinase assay)” value [2] was “L807 is phosphorylated by both GSK-3 and F93A”.

B2: GSK-3β F93A mutant (in which Phe93 was replaced by alanine) (protein)
chain: B1 chain with F93A
For B2, the “peptide phosphorylation by the F93A mutant (in vitro kinase assay)” value [2] was “L807 is phosphorylated by both GSK-3 and F93A”.

— patent US20160200763
